Data on 1 substance can be found in patent US20240060043A1.

The target of the experiment is FMC63 protein (Example 2). The experiment is described as follows: ELISA, 500 ng/well coated FMC63, fresh biotinylated fusion protein at 500 or 0.5 ng/well, 4° C. A general note: In an ELISA, binding on a coated surface is turned into a signal by an enzyme label.

Substance “TNF-α:CD19 ECD fusion protein (ClonedTNFFP)” yielded a fold increase in absorbance over wells without fusion protein of more than 7 fold.
